# Target: Aspergillus niger α-xylosidase AxlA (Aspergillus niger)
# Test: crystal structure
substance,measurement,value
Aspergillus niger α-xylosidase AxlA (enzyme),stoichiometry N,4
